From article PMC4456606, “A conserved histidine modulates HSPB5 structure to trigger chaperone activity in response to stress-related acidosis” (eLife, 2015) come the findings set out here.

By Kd is commonly meant the free concentration of one partner at which half of the binding sites on the other are occupied at equilibrium, for simple one-to-one binding. In general, koff refers to a measure of how fast the partners let go of each other. A low value points to a long-lived complex. By kon is commonly meant a measure of how fast the partners come together. By stoichiometry N is commonly meant the number of molecules, sites or subunits per partner or assembly.

Residue numbers refer to the chain shown, from its start. Names and notes keep the numbering of the source. Bounds are passed on as bounds.

The labels stand for the following.
B1: HSPB5-ACD (alpha-crystallin domain of HSPB5, residues 64-152) (domain or fragment, human, UniProt P02511 64-152, looked up)
chain: GLSEMRLEKDRFSVNLDVKHFSPEELKVKVLGDVIEVHGKHEERQDEHGFISREFHRKYRIPADVDPLTITSSLSSDGVLTVNGPRKQV
notes: HSPB5 (alphaB-crystallin), human, alpha-crystallin domain, residues 64-152; 15N- or 13C,15N-labelled for the NMR experiments; also called WT-ACD; WT-HSPB5-ACD; source: expressed and purified as described previously (Jehle et al., 2009)
B2: H104Q-ACD (HSPB5-ACD with His-104 replaced by Gln) (domain or fragment, human, UniProt P02511 64-152, looked up)
chain: B1 chain with H41Q
notes: HSPB5 (alphaB-crystallin), human, alpha-crystallin domain, residues 64-152, with H104Q; source: growth and purification similar to that of wild-type proteins (Jehle et al., 2009)
B3: H104K-ACD (HSPB5-ACD with His-104 replaced by Lys) (domain or fragment, human, UniProt P02511 64-152, looked up)
chain: B1 chain with H41K
notes: HSPB5 (alphaB-crystallin), human, alpha-crystallin domain, residues 64-152, with H104K; source: growth and purification similar to that of wild-type proteins (Jehle et al., 2009)
B4: WT-HSPB5 (full-length HSPB5, alphaB-crystallin) (natural protein, human, UniProt P02511 1-175, looked up)
chain: MDIAIHHPWIRRPFFPFHSPSRLFDQFFGEHLLESDLFPTSTSLSPFYLRPPSFLRAPSWFDTGLSEMRLEKDRFSVNLDVKHFSPEELKVKVLGDVIEVHGKHEERQDEHGFISREFHRKYRIPADVDPLTITSSLSSDGVLTVNGPRKQVSGPERTIPITREEKPAVTAAPKK
notes: HSPB5 (alphaB-crystallin), human, full length; Forms polydisperse oligomers; also called αB-crystallin; source: expressed and purified as described previously (Jehle et al., 2009)
B5: H104Q-HSPB5 (full-length HSPB5 with His-104 replaced by Gln) (natural protein, human, UniProt P02511 1-175, looked up)
chain: B4 chain with H104Q
notes: HSPB5 (alphaB-crystallin), human, full length, with H104Q; source: growth and purification similar to that of wild-type proteins (Jehle et al., 2009)
B6: H104K-HSPB5 (full-length HSPB5 with His-104 replaced by Lys) (natural protein, human, UniProt P02511 1-175, looked up)
chain: B4 chain with H104K
notes: HSPB5 (alphaB-crystallin), human, full length, with H104K; source: growth and purification similar to that of wild-type proteins (Jehle et al., 2009)
B7: bovine αLactalbumin (natural protein, UniProt P00711 20-142, looked up)
chain: EQLTKCEVFRELKDLKGYGGVSLPEWVCTTFHTSGYDTQAIVQNNDSTEYGLFQINNKIWCKDDQNPHSSNICNISCDKFLDDDLTDDIMCVKKILDKVGINYWLAHKALCSEKLDQWLCEKL
notes: alpha-lactalbumin, bovine, Sigma L6010; Model client protein; source: bought: Sigma (L6010)

Series [1] concerns the molecule itself. The experiment in a line: ITC; dilution ITC, 1 mM WT-ACD, dimer to monomers; 25°C, pH 6.5, 50 mM sodium phosphate, 100 mM NaCl. In general terms: ITC needs no label: the signal is the heat of the interaction.
Series [2] deals with the molecule itself. Description: ITC; dilution ITC, 1 mM WT-ACD, dimer to monomers; 37°C, pH 7.5, 50 mM sodium phosphate, 100 mM NaCl.
Series [3] concerns the molecule itself. The experiment in a line: 15N-CPMG relaxation dispersion NMR; 700 and 200 μM ACD, pH 7.5, 37°C; global fit of dimer interface residues; rate constants worked out with the KD of 36 μM from ITC; dimer to monomers.
Series [4] concerns the molecule itself. The experiment in a line: ITC; dilution ITC, 1 mM WT-ACD, dimer to monomers; 25°C, pH 7.5, 50 mM sodium phosphate, 100 mM NaCl.
Series [5] concerns the molecule itself. The experiment in a line: 1H-15N HSQC NMR; 200 μM ACD, pH 7.5, 22°C, NMR buffer; populations of dimer and monomer peaks; dimer to monomers.
Series [6] deals with the molecule itself. Description: SEC-MALS; 40 μM subunits, pre-incubated at 37°C for 30 min; 50 mM sodium phosphate pH 7.5, 100 mM NaCl, 1 mM DTT; size of the oligomers. (In general: SEC sorts molecules by how far they enter the pores of the column.)
Series [7] deals with the molecule itself. The experiment in a line: SEC-MALS; 40 μM subunits, equilibrated at 37°C for at least 60 min; 50 mM sodium phosphate pH 6.5, 100 mM NaCl, 1 mM DTT; size of the oligomers.
Series [8] has as its target B4. Description: SEC-MALS; WT- and H104K-HSPB5 incubated together at ratios 1:0, 2:1, 1:1, 1:2, 0:1; mixed oligomers. The conditions noted are these: both partners purified.
The target in series [9] is B6. Description: SEC-MALS; HSPB5 (40 μM subunits) pre-incubated with αLac (240 μM in the methods, 120 μM in the legend) at 37°C, pH 7.5, 10 min, then 50 mM DTT for 50 min, filtered and injected; SDS-PAGE of peak fractions. The settings on record: both partners purified.
Series [10] deals with B5. Described as above. The conditions noted are these: both partners purified.

As for B1, in series [1], the Kd stood at 30 ± 16 µM and the dH was 3.24 ± 0.432 kcal/mol. In [2], this molecule showed a Kd of 36 ± 2 µM and a dH of 9.33 ± 0.527 kcal/mol. In addition, in [3], the dissociation rate constant (koff) turned out to be 400 s⁻¹ and the kon came out at 1.1e+07 M⁻¹ s⁻¹. Moreover, in [4], binding was characterised by a dissociation constant (Kd) of 2 ± 2 µM and the dH was 8.77 ± 3.96 kcal/mol.

B2 yielded a Kd in series [5] of 100 to 500 µM.

For B3, the Kd in series [5] was above 1000 µM.

B4: the “stoichiometry N” value in series [6] was around 24 subunits; in series [7] it was around 36 subunits per oligomer.

With B5, in series [6], the binding result is “binds”.

As to B6, in series [6], the “stoichiometry N” value was around 41 subunits. Also, the binding result in [8] is on record as “binds”.

Consider B7, for which the binding result in series [9] and in [10] was “binds” each time.
